One block for each substance: values may come before it.
Legend:
Human Insulin Receptor A = biological target: T1, Human Insulin Receptor A (Homo sapiens, UniProt P06213); test: Insulin receptor binding assay (on solubilised insulin receptor), SPA; conditions: SPA competition with [125I]A14Tyr-labelled insulin, solubilized human IR-A
T1 construct: solubilized human IR (holoreceptor); made in house; host or cells: baby hamster kidney (BHK) cells stably transfected with pZem vector containing the human IR-A insert
T1 sequence (P06213 28-746 isoform P06213-2 limits assumed): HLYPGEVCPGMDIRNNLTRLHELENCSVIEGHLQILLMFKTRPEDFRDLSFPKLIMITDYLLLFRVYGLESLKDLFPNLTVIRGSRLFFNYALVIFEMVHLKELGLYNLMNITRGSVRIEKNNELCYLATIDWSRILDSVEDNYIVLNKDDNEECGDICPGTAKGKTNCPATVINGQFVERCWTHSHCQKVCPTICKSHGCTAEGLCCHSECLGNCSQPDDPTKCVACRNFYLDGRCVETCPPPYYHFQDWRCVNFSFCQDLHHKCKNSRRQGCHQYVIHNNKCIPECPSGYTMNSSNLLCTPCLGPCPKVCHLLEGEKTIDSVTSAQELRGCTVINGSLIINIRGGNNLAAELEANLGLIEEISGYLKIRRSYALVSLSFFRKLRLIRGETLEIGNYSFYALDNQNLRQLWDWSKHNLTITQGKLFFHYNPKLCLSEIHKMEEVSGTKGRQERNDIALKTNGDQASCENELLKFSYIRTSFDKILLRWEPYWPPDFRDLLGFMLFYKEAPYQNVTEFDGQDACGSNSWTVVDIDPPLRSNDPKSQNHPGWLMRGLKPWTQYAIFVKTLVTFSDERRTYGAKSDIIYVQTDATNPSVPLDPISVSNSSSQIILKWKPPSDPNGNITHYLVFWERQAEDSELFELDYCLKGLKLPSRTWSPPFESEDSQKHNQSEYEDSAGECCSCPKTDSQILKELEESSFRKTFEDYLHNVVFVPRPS
T1 sequence (P06213 763-1382 partner limits assumed): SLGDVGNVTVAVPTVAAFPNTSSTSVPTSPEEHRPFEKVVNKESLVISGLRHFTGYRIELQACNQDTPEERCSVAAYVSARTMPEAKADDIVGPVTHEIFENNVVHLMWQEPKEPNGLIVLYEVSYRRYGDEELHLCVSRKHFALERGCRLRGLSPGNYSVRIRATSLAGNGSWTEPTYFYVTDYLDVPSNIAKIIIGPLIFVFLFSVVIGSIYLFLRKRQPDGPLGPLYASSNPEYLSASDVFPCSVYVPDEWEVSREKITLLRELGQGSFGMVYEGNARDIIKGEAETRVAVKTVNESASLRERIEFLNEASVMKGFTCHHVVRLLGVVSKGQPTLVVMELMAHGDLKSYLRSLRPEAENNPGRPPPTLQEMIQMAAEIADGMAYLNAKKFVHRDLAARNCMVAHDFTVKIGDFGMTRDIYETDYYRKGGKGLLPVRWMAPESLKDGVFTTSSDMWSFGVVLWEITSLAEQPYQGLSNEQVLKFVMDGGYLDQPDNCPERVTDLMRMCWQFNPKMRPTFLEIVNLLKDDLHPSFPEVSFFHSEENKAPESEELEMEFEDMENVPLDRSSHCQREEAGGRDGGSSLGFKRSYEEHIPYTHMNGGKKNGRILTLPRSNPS
Experimental: (2008), Biochemistry, 47, 4743-4751). Competition binding experiments were performed in 96-well plates (polystyrene Optiplate-96, PerkinElmer) on an Eppendorf epMotion 5075 robot using solubilized human IR (holoreceptor) semipurified by wheat germ agglutinin purification from baby hamster kidney (BHK) cells, which were stably transfected with the pZem vector containing the human IR-A or IR-B insert. […] A reagent mix consisting of SPA beads (SPA PVT Antibody-Binding Beads, Anti-Mouse Reagent Cat. No. […] (2008), Biochemistry, 47, 4743-4751). Competition binding experiments were performed in 96-well plates (polystyrene OPTIPLATE-96TM, PerkinElmer) on an Eppendorf EPMOTION® 5075 robot using solubilized human IR (holoreceptor) semipurified by wheat germ agglutinin purification from baby hamster kidney (BHK) cells, which were stably transfected with the pZem vector containing the human IR-A or IR-B insert. […] A reagent mix consisting of SPA beads (SPA PVT Antibody-Binding Beads, Anti-Mouse Reagent Cat. No.

[1] = Thioflavin T (ThT) fibrillation assay; assay type: physicochemical; conditions: mean of four samples with standard deviation, 37° C., 960 rpm
Description: General Procedure for Thioflavin T (ThT) Fibrillation Assay:
This has traditionally been measured by visual inspection of the sample. However, that kind of measurement is very subjective and depending on the observer. Therefore the application of a small molecule indicator probe is much preferred. […] The time course for fibril formation can be described by a sigmoidal curve with the following expression (Nielsen at al. Biochemistry 40, 6036-6046, 2001):
Here, F is the ThT fluorescence at the time t. The constant t0 is the time needed to reach 50% of maximum fluorescence.
Samples were prepared freshly before each assay. […] Thioflavin T was added to the samples from a stock solution in water to a final concentration of 1 μM. Sample aliquots of 200 μl were placed in a 96 well microtiter plate (Packard Optiplate™-96, white polystyrene). Usually four replica of each sample (corresponding to one test condition) were placed in one column of wells. The plate was sealed with Scotch Pad (Qiagen).
The temperature was adjusted to 37° C. […] Fluorescence measurements were done using excitation through a 444 nm filter and measurement of emission through a 485 nm filter.
Each run was initiated by incubating the plate at the assay temperature for 10 min. The plate was measured every 20 minutes for typically 45 hours. Between each measurement, the plate was shaken and heated as described above.
The data points are typically a mean of four samples. Only data obtained in the same experiment (i.e. samples on the same plate) are presented in the same graph ensuring a relative measure of fibrillation between the individual samples of one assay rather then comparison between different assays.
The data set may be fitted to Eq. (1).

[2] = Hydrophobicity by isocratic reverse phase HPLC (k'rel); assay type: physicochemical; conditions: hydrophobicity relative to human insulin (k'rel HI = 1); isocratic RP-HPLC, pH 7.3
Experimental: The hydrophobicity, k′rel, is calculated as: k′relderiv=((tderiv−t0)/(trel−t0))*k′relref. Using HI as reference: k′relref=k′relHI=1. The void time of the HPLC system, t0, is determined by injecting 5 μl of 0.1 mM NaNO3. Running conditions:
Column: Lichrosorb RP-C18, 5 μm, 4×250 mm
Buffer A: 0.1 M natrium phosphate pH 7.3, 10 vol % CH3CN
After running an initial gradient, the isocratic level for running the analogue and reference (for example HI) is chosen, and the elution times of the analogue and reference under isocratic conditions are used in the above equation to calculate k′relderiv.

Primary rat adipocytes = test: Lipogenesis in rat adipocytes; assay type: cell-based; conditions: 3H-glucose conversion into extractable lipids; relative potency compared to human insulin
Description: As a measure of in vitro potency of the insulins of the invention, lipogenesis can be used.
The labelled glucose is converted into extractable lipids in a dose dependent way, resulting in full dose response curves.

Relative Affinity to Human Insulin Receptor A (% HI) (Human Insulin Receptor A): 80.0 % HI
Substance: A10C, A21G, B2C, B3E, B28E, desB30 human insulin [Example 17]

Relative Affinity to Human Insulin Receptor A (% HI) (Human Insulin Receptor A): 20.0 % HI
Substance: A10C, A21G, B3C, desB27, B28E, desB30 human insulin [Example 23]

Relative Affinity to Human Insulin Receptor A (% HI) (Human Insulin Receptor A): 10.0 % HI
Substance: A21C, B10E, B26C, desB30 human insulin [Example 78]

Substance: A10C, A22K, B3C, desB27, desB30 human insulin [Example 28]
ThT fluorescence, 0 h ([1]; 0 h): 35.8 ± 0.9 | ThT fluorescence, 2 h ([1]; 2 h): 29.4 ± 1 | ThT fluorescence, 20 h ([1]; 20 h): 27.6 ± 0.8 | ThT fluorescence, 45 h ([1]; 45 h): 25 ± 0.7 | k′-rel (human insulin) [2]: 0.0810 | Lipogenesis (potency rel to HI) (Primary rat adipocytes): 25.3%
